The results in this text go back to PMC11766367, “Structure-Function Relationship of the β-Hairpin of Thermus thermophilus HB27 Laccase” (International Journal of Molecular Sciences, 2025).

Substrate in the series “purified protein”: COc1ccccc1O
Nature of the series: purified protein. The settings on record: pH 6.0, 61.5 °C, free copper contradictory: caption says without, methods and text suggest 1 mM CuSO4 added.

Substrate in series [1]: CCn1c(=NN=c2sc3cc(S(=O)(=O)O)ccc3n2CC)sc2cc(S(=O)(=O)O)ccc21
Nature of the series: spectrophotometric oxidation assay, Michaelis-Menten fit. The format is biochemical, Thermus thermophilus. As to conditions: pH 6.0, 61.5 °C, free copper contradictory: caption says without, methods and text suggest 1 mM CuSO4 added. The text has this:
(§1) spectrophotometric oxidation assay, Michaelis-Menten fit on Tth-Lac

Substrate in series [2]: COc1cc(C=NN=Cc2cc(OC)c(O)c(OC)c2)cc(OC)c1O
The series is described as above. The class given is biochemical, Thermus thermophilus. As to conditions: pH 6.0, 61.5 °C, free copper contradictory: caption says without, methods and text suggest 1 mM CuSO4 added.
Text: as §1

Substrate in series [3]: COc1cccc(OC)c1O
The description is as above. The format is biochemical, Thermus thermophilus. As to conditions: pH 7.0, 61.5 °C, free copper contradictory: caption says with, methods and text suggest without, pH 7.0.
Text: as §1

B1: Tth-Lac (Thermus thermophilus HB27) (protein)
chain: QGPSFPEPKVVRSQGGLLSLKLSATPTPLALAGQRATLLTYGGSFPGPTLRVRPRDTVRLTLENRLPEPTNLHWHGLPISPKVDDPFLEIPPGESWTYEFTVPKELAGTFWYHPHLHGRVAPQLFAGLLGALVVESSLDAIPELREAEEHLLVLKDLALQGGRPAPHTPMDWMNGKEGDLVLVNGALRPTLVAQKATLRLRLLNASNARYYRLALQDHPLYLIAADGGFLEEPLEVSELLLAPGERAEVLVRLRKEGRFLLQALPYDRGAMGMMDMGGMAHAMPQGPSRPETLLYLIAPKNPKPLPLPKALSPFPTLPAPVVTRRLVLTEDMMAARFFINGQVFDHRRVDLKGQAQTVEVWEVENQGDMDHPFHLHVHPFQVLSVGGRPFPYRAWKDVVNLKAGEVARLLVPLREKGRTVFHCHIVEHEDRGMMGVLEVG
notes: signal peptide removed, gene starts at residue 23; pET-22b(+), E. coli BL21 Gold (DE3) with CuSO4; heat step and CM-Sepharose; no tag mentioned; monomer
Consider B1, for which the Michaelis constant (Km) (in general, the substrate concentration at which the rate is half of its maximum) turned out to be 21 ± 2 µM in the series “purified protein”, 1030 ± 160 µM in series [1] (pH 6.0), 6.17 ± 0.5 µM in series [2] (pH 6.0) and 880 ± 80 µM in series [3]. Further, the maximal velocity (Vmax) (in general, the rate approached at saturating substrate) in “purified protein” came to 5.14 ± 0.11 µmol/mg/min; in series [1] (pH 6.0), 28.48 ± 1.93 µmol/mg/min; in series [2] (pH 6.0), 13.92 ± 0.31 µmol/mg/min; in series [3], 6.00 ± 0.24 µmol/mg/min.

B2: Tth-Lac (Thermus thermophilus HB27; DEL292-307/G291S) (protein)
chain: QGPSFPEPKVVRSQGGLLSLKLSATPTPLALAGQRATLLTYGGSFPGPTLRVRPRDTVRLTLENRLPEPTNLHWHGLPISPKVDDPFLEIPPGESWTYEFTVPKELAGTFWYHPHLHGRVAPQLFAGLLGALVVESSLDAIPELREAEEHLLVLKDLALQGGRPAPHTPMDWMNGKEGDLVLVNGALRPTLVAQKATLRLRLLNASNARYYRLALQDHPLYLIAADGGFLEEPLEVSELLLAPGERAEVLVRLRKEGRFLLQALPYDRSGPSRPETLLYLIAPKNPKPLPLPKALSPFPTLPAPVVTRRLVLTEDMMAARFFINGQVFDHRRVDLKGQAQTVEVWEVENQGDMDHPFHLHVHPFQVLSVGGRPFPYRAWKDVVNLKAGEVARLLVPLREKGRTVFHCHIVEHEDRGMMGVLEVG
notes: as for B1
For the protein B2, the figures for the Michaelis-Menten constant (Km) (in “purified protein” (C1Tth-Lac); in series [1] (C1Tth-Lac); in series [2] (C1Tth-Lac)) were 45 ± 8 µM, 280 ± 60 µM and 7.83 ± 1.35 µM, respectively. The maximal velocity (Vmax) in “purified protein” (C1Tth-Lac) was determined as 9.47 ± 0.46 µmol/mg/min; in series [1] (C1Tth-Lac), 12.34 ± 0.91 µmol/mg/min; in series [2] (C1Tth-Lac), 14.60 ± 0.80 µmol/mg/min.

B3: Tth-Lac (Thermus thermophilus HB27; A304G/DEL295-303) (protein)
chain: QGPSFPEPKVVRSQGGLLSLKLSATPTPLALAGQRATLLTYGGSFPGPTLRVRPRDTVRLTLENRLPEPTNLHWHGLPISPKVDDPFLEIPPGESWTYEFTVPKELAGTFWYHPHLHGRVAPQLFAGLLGALVVESSLDAIPELREAEEHLLVLKDLALQGGRPAPHTPMDWMNGKEGDLVLVNGALRPTLVAQKATLRLRLLNASNARYYRLALQDHPLYLIAADGGFLEEPLEVSELLLAPGERAEVLVRLRKEGRFLLQALPYDRGAMGGMPQGPSRPETLLYLIAPKNPKPLPLPKALSPFPTLPAPVVTRRLVLTEDMMAARFFINGQVFDHRRVDLKGQAQTVEVWEVENQGDMDHPFHLHVHPFQVLSVGGRPFPYRAWKDVVNLKAGEVARLLVPLREKGRTVFHCHIVEHEDRGMMGVLEVG
notes: as for B1
As for B3, the Michaelis constant (Km) came to 49.9 ± 6 µM in “purified protein” (P1Tth-Lac); 1090 ± 160 µM in series [1] (P1Tth-Lac, pH 6.0); 430 ± 60 µM in series [3] (P1Tth-Lac). Besides, the Vmax in “purified protein” (P1Tth-Lac) came to 9.57 ± 0.47 µmol/mg/min; in series [1] (P1Tth-Lac, pH 6.0) it was 21.48 ± 1.81 µmol/mg/min; in series [3] (P1Tth-Lac), 1.45 ± 0.07 µmol/mg/min.

B4: Tth-Lac (Thermus thermophilus HB27; A292G/DEL293-307) (protein)
chain: QGPSFPEPKVVRSQGGLLSLKLSATPTPLALAGQRATLLTYGGSFPGPTLRVRPRDTVRLTLENRLPEPTNLHWHGLPISPKVDDPFLEIPPGESWTYEFTVPKELAGTFWYHPHLHGRVAPQLFAGLLGALVVESSLDAIPELREAEEHLLVLKDLALQGGRPAPHTPMDWMNGKEGDLVLVNGALRPTLVAQKATLRLRLLNASNARYYRLALQDHPLYLIAADGGFLEEPLEVSELLLAPGERAEVLVRLRKEGRFLLQALPYDRGGGPSRPETLLYLIAPKNPKPLPLPKALSPFPTLPAPVVTRRLVLTEDMMAARFFINGQVFDHRRVDLKGQAQTVEVWEVENQGDMDHPFHLHVHPFQVLSVGGRPFPYRAWKDVVNLKAGEVARLLVPLREKGRTVFHCHIVEHEDRGMMGVLEVG
notes: as for B1
For the protein B4, the Km in “purified protein” (C2Tth-Lac) stood at 37 ± 5 µM; in series [1] (C2Tth-Lac, pH 6.0), 940 ± 190 µM; in series [2] (C2Tth-Lac, pH 6.0), 7.2 ± 1.13 µM; in series [3] (C2Tth-Lac), 220 ± 30 µM. For the same protein, the Vmax in the series “purified protein” (C2Tth-Lac) was 3.98 ± 0.21 µmol/mg/min; in series [1] (C2Tth-Lac, pH 6.0) it was 14.80 ± 1.43 µmol/mg/min; in series [2] (C2Tth-Lac, pH 6.0), 7.20 ± 0.46 µmol/mg/min; in series [3] (C2Tth-Lac), 0.87 ± 0.4 µmol/mg/min.
